Test results reported in patent US20220204580A1 (AstraZeneca / MedImmune, published 2022).
Numbered stars: 1 amine (or outer) side, 2 acyl side, 3 side chain; on linkers, the order of the positions; unused ones are H or OH. Bridge positions count the residues as written; N and C are the ends. Square brackets hold non-standard residues; d marks the D form. Side chains are listed from the residue outwards. Ends that are not written are not given here. * marks the point of attachment. C20 diacid = O=C(O)CCCCCCCCCCCCCCCCCCC(=O)*; C18 diacid = O=C(O)CCCCCCCCCCCCCCCCC(=O)*; γGlu = O=C(O)[C@H](CCC(=O)[*:2])N[*:1]; Hyp = O=C(O)[C@@H]1C[C@@H](O)CN1; Dab = NCC[C@H](N)C(=O)O; Aib = CC(C)(N)C(=O)O

T1: human amylin receptor (calcitonin receptor co-expressed with receptor activity modifying protein, RAMP3) (human, UniProt P30988 25-474; O60896 24-148)
T1 sequence (looked up) 1: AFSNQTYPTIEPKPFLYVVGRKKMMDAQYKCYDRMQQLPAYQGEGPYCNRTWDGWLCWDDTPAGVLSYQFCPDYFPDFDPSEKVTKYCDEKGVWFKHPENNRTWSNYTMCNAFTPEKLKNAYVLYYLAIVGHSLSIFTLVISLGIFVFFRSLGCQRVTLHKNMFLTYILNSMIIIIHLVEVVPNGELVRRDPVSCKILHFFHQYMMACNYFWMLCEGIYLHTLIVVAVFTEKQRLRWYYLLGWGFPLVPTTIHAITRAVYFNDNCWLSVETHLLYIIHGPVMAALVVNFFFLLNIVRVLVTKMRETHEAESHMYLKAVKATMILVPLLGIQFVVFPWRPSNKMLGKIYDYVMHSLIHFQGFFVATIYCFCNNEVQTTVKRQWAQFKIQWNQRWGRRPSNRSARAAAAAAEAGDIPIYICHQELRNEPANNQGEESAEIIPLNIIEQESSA
T1 sequence (looked up) 2: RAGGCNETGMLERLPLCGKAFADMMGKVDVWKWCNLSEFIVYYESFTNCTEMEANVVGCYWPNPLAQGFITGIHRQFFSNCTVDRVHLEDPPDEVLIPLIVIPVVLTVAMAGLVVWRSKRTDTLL

T2: human calcitonin receptor (human, UniProt P30988 25-474)
T2 sequence (looked up): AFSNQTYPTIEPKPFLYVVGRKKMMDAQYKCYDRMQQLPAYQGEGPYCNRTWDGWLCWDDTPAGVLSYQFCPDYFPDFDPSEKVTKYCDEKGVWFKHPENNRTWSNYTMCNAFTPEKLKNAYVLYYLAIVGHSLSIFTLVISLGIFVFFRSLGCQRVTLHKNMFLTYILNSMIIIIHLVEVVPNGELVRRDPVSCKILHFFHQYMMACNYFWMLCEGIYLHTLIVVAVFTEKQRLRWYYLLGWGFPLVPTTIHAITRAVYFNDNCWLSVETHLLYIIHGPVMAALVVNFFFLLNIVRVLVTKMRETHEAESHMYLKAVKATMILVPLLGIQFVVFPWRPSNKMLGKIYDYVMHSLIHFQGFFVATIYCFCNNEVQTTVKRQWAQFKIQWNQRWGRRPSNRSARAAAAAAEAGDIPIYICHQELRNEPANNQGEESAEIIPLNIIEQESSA


How the values were obtained:
[1] = molecular target: T1, human amylin receptor (calcitonin …); test: cell-based or functional assay
[2] = molecular target: T2, human calcitonin receptor; test: cell-based or functional assay

Binder | EC50 (cAMP production) [1] | Ratio (EC50 hCTR / EC50 hAMYR3) [1] | EC50 (cAMP production) [2]
K([γGlu-γGlu-C20 diacid])CNTATCATQRLANFLVHSS[Aib]NFPAILSPTNVGS[Dab]TY-NH2 (disulfide 2-7; N-terminus assumed; SMILES CC[C@H](C)[C@H](NC(=O)[C@H](C)NC(=O)[C@@H]1CCCN1C(=O)[C@H](Cc1ccccc1)NC(=O)[C@H](CC(N)=O)NC(=O)C(C)(C)NC(=O)[C@H](CO)NC(=O)[C@H](CO)NC(=O)[C@H](Cc1c[nH]cn1)NC(=O)[C@@H](NC(=O)[C@H](CC(C)C)NC(=O)[C@H](Cc1ccccc1)NC(=O)[C@H](CC(N)=O)NC(=O)[C@H](C)NC(=O)[C@H](CC(C)C)NC(=O)[C@H](CCCNC(=N)N)NC(=O)[C@H](CCC(N)=O)NC(=O)[C@@H](NC(=O)[C@H](C)NC(=O)[C@@H]1CSSC[C@H](NC(=O)[C@@H](N)CCCCNC(=O)CC[C@H](NC(=O)CC[C@H](NC(=O)CCCCCCCCCCCCCCCCCCC(=O)O)C(=O)O)C(=O)O)C(=O)N[C@@H](CC(N)=O)C(=O)N[C@@H]([C@@H](C)O)C(=O)N[C@@H](C)C(=O)N[C@@H]([C@@H](C)O)C(=O)N1)[C@@H](C)O)C(C)C)C(=O)N[C@@H](CC(C)C)C(=O)N[C@@H](CO)C(=O)N1CCC[C@H]1C(=O)N[C@H](C(=O)N[C@@H](CC(N)=O)C(=O)N[C@H](C(=O)NCC(=O)N[C@@H](CO)C(=O)N[C@@H](CCN)C(=O)N[C@H](C(=O)N[C@@H](Cc1ccc(O)cc1)C(N)=O)[C@@H](C)O)C(C)C)[C@@H](C)O) [Peptide 125 (SEQ ID NO: 125)] | 1.2 nM | 8 | 10.2 nM
K([γGlu-γGlu-C20 diacid])CNTATCATQRLANFLVHSS[Aib]NF[Hyp]AILSPTNVGSNTY-NH2 (disulfide 2-7; not fully specified; printed as K(γE-γE-C20diacid)[CNTATC]ATQRLANFLVHSS(Aib)NF(Hyp)AILSPTNVGSNTY-amide) [Peptide 121 (SEQ ID NO: 121)] | 1.33 nM | 5 | 6.07 nM
K([γGlu-γGlu-C18 diacid])CNTATCATQRLANFLVHSS[Aib]NFPAILSPT[Dab]VGSNTY-NH2 (disulfide 2-7; N-terminus assumed; SMILES CC[C@H](C)[C@H](NC(=O)[C@H](C)NC(=O)[C@@H]1CCCN1C(=O)[C@H](Cc1ccccc1)NC(=O)[C@H](CC(N)=O)NC(=O)C(C)(C)NC(=O)[C@H](CO)NC(=O)[C@H](CO)NC(=O)[C@H](Cc1c[nH]cn1)NC(=O)[C@@H](NC(=O)[C@H](CC(C)C)NC(=O)[C@H](Cc1ccccc1)NC(=O)[C@H](CC(N)=O)NC(=O)[C@H](C)NC(=O)[C@H](CC(C)C)NC(=O)[C@H](CCCNC(=N)N)NC(=O)[C@H](CCC(N)=O)NC(=O)[C@@H](NC(=O)[C@H](C)NC(=O)[C@@H]1CSSC[C@H](NC(=O)[C@@H](N)CCCCNC(=O)CC[C@H](NC(=O)CC[C@H](NC(=O)CCCCCCCCCCCCCCCCC(=O)O)C(=O)O)C(=O)O)C(=O)N[C@@H](CC(N)=O)C(=O)N[C@@H]([C@@H](C)O)C(=O)N[C@@H](C)C(=O)N[C@@H]([C@@H](C)O)C(=O)N1)[C@@H](C)O)C(C)C)C(=O)N[C@@H](CC(C)C)C(=O)N[C@@H](CO)C(=O)N1CCC[C@H]1C(=O)N[C@H](C(=O)N[C@@H](CCN)C(=O)N[C@H](C(=O)NCC(=O)N[C@@H](CO)C(=O)N[C@@H](CC(N)=O)C(=O)N[C@H](C(=O)N[C@@H](Cc1ccc(O)cc1)C(N)=O)[C@@H](C)O)C(C)C)[C@@H](C)O) [Peptide 122 (SEQ ID NO: 122)] | 0.655 nM | 9 | 6.18 nM
K([γGlu-γGlu-C20 diacid])CNTATCATQRLANFLVHSS[Aib]NFPAILSPT[Dab]VGSNTY-NH2 (disulfide 2-7; N-terminus assumed; SMILES CC[C@H](C)[C@H](NC(=O)[C@H](C)NC(=O)[C@@H]1CCCN1C(=O)[C@H](Cc1ccccc1)NC(=O)[C@H](CC(N)=O)NC(=O)C(C)(C)NC(=O)[C@H](CO)NC(=O)[C@H](CO)NC(=O)[C@H](Cc1c[nH]cn1)NC(=O)[C@@H](NC(=O)[C@H](CC(C)C)NC(=O)[C@H](Cc1ccccc1)NC(=O)[C@H](CC(N)=O)NC(=O)[C@H](C)NC(=O)[C@H](CC(C)C)NC(=O)[C@H](CCCNC(=N)N)NC(=O)[C@H](CCC(N)=O)NC(=O)[C@@H](NC(=O)[C@H](C)NC(=O)[C@@H]1CSSC[C@H](NC(=O)[C@@H](N)CCCCNC(=O)CC[C@H](NC(=O)CC[C@H](NC(=O)CCCCCCCCCCCCCCCCCCC(=O)O)C(=O)O)C(=O)O)C(=O)N[C@@H](CC(N)=O)C(=O)N[C@@H]([C@@H](C)O)C(=O)N[C@@H](C)C(=O)N[C@@H]([C@@H](C)O)C(=O)N1)[C@@H](C)O)C(C)C)C(=O)N[C@@H](CC(C)C)C(=O)N[C@@H](CO)C(=O)N1CCC[C@H]1C(=O)N[C@H](C(=O)N[C@@H](CCN)C(=O)N[C@H](C(=O)NCC(=O)N[C@@H](CO)C(=O)N[C@@H](CC(N)=O)C(=O)N[C@H](C(=O)N[C@@H](Cc1ccc(O)cc1)C(N)=O)[C@@H](C)O)C(C)C)[C@@H](C)O) [Peptide 123 (SEQ ID NO: 123)] | 0.873 nM | 5 | 4.79 nM

More lines, now with the values ahead:

EC50 (cAMP production) [1] | Ratio (EC50 hCTR / EC50 hAMYR3) [1] | EC50 (cAMP production) [2] | Binder
1.13 nM | 6 | 6.63 nM | K([γGlu-γGlu-C18 diacid])CNTATCATQRLANFLVHSS[Aib]NFPAILSPTNVGS[Dab]TY-NH2 (disulfide 2-7; N-terminus assumed; SMILES CC[C@H](C)[C@H](NC(=O)[C@H](C)NC(=O)[C@@H]1CCCN1C(=O)[C@H](Cc1ccccc1)NC(=O)[C@H](CC(N)=O)NC(=O)C(C)(C)NC(=O)[C@H](CO)NC(=O)[C@H](CO)NC(=O)[C@H](Cc1c[nH]cn1)NC(=O)[C@@H](NC(=O)[C@H](CC(C)C)NC(=O)[C@H](Cc1ccccc1)NC(=O)[C@H](CC(N)=O)NC(=O)[C@H](C)NC(=O)[C@H](CC(C)C)NC(=O)[C@H](CCCNC(=N)N)NC(=O)[C@H](CCC(N)=O)NC(=O)[C@@H](NC(=O)[C@H](C)NC(=O)[C@@H]1CSSC[C@H](NC(=O)[C@@H](N)CCCCNC(=O)CC[C@H](NC(=O)CC[C@H](NC(=O)CCCCCCCCCCCCCCCCC(=O)O)C(=O)O)C(=O)O)C(=O)N[C@@H](CC(N)=O)C(=O)N[C@@H]([C@@H](C)O)C(=O)N[C@@H](C)C(=O)N[C@@H]([C@@H](C)O)C(=O)N1)[C@@H](C)O)C(C)C)C(=O)N[C@@H](CC(C)C)C(=O)N[C@@H](CO)C(=O)N1CCC[C@H]1C(=O)N[C@H](C(=O)N[C@@H](CC(N)=O)C(=O)N[C@H](C(=O)NCC(=O)N[C@@H](CO)C(=O)N[C@@H](CCN)C(=O)N[C@H](C(=O)N[C@@H](Cc1ccc(O)cc1)C(N)=O)[C@@H](C)O)C(C)C)[C@@H](C)O) [Peptide 124 (SEQ ID NO: 124)]
1.77 nM | 6 | 10.7 nM | K([γGlu-γGlu-C20 diacid])CNAATCATQRLANWLVHSSPNFPAILSPTNVGSNTY-NH2 (disulfide 2-7; N-terminus assumed; SMILES CC[C@H](C)[C@H](NC(=O)[C@H](C)NC(=O)[C@@H]1CCCN1C(=O)[C@H](Cc1ccccc1)NC(=O)[C@H](CC(N)=O)NC(=O)[C@@H]1CCCN1C(=O)[C@H](CO)NC(=O)[C@H](CO)NC(=O)[C@H](Cc1c[nH]cn1)NC(=O)[C@@H](NC(=O)[C@H](CC(C)C)NC(=O)[C@H](Cc1c[nH]c2ccccc12)NC(=O)[C@H](CC(N)=O)NC(=O)[C@H](C)NC(=O)[C@H](CC(C)C)NC(=O)[C@H](CCCNC(=N)N)NC(=O)[C@H](CCC(N)=O)NC(=O)[C@@H](NC(=O)[C@H](C)NC(=O)[C@@H]1CSSC[C@H](NC(=O)[C@@H](N)CCCCNC(=O)CC[C@H](NC(=O)CC[C@H](NC(=O)CCCCCCCCCCCCCCCCCCC(=O)O)C(=O)O)C(=O)O)C(=O)N[C@@H](CC(N)=O)C(=O)N[C@@H](C)C(=O)N[C@@H](C)C(=O)N[C@@H]([C@@H](C)O)C(=O)N1)[C@@H](C)O)C(C)C)C(=O)N[C@@H](CC(C)C)C(=O)N[C@@H](CO)C(=O)N1CCC[C@H]1C(=O)N[C@H](C(=O)N[C@@H](CC(N)=O)C(=O)N[C@H](C(=O)NCC(=O)N[C@@H](CO)C(=O)N[C@@H](CC(N)=O)C(=O)N[C@H](C(=O)N[C@@H](Cc1ccc(O)cc1)C(N)=O)[C@@H](C)O)C(C)C)[C@@H](C)O) [Peptide 120 (SEQ ID NO: 120)]
